Test: label from the status in PepcDB records

Sequence	protein production
MLTMQEIKAHYRFTDEDAELLGSLFPLAETNKERLADQFYDYLLGIPETAEFLKEDLVLQKLKQTHQDWFVSLFAGSYDNRYIHNLQKIGHAHVRVGLNAHYVNVAMNVVRQFTLSIIQDNFPDPEERRQRREAVEKILDINLDIMSASYREEEMRKFFVSHRLESKLITATERFTYGLNLILVLALAGVSVSVVGLFIWDIGHIFQGSVEKGILSALGSLLILWMMIELIENEIKILKGGRFNILFFIGVIIVALIREILISTLRHDPLTTQVFLAGTLLVLGVVYFLVSKSQQPYTPH	failed
MVFLIVPILTILGLSIHEAIGTSLACIAISSFSSAYTHLKKGKVHIKVVILKELFSIPAAVLGAYLTNDINEKILRVAFSMLLFYLAVRLTVKRRAKDSKEAKIHYERVPLVGVASGFLSGLLGISGGILNVPLFTIFVGIPIKYSIGTSSLALFFTALAGAITHLKEGNVVLSIALALAPGLIVGAYVGAIVSHRIHSDKLRVLFSALLLIIGVRMLV	failed
MTSSINSSPLNAIADQALGLDDAAVPAAIEPASDEPSFASLGLSPEIVSALEAAGYVKPTPVQQRAIPAGIAGRDLLVSSPTGSGKTAAFMLPAIERFAQLQKTLAQQPRTPREPSQGDRRVRRPQPVARPGLLVLTPTRELAMQVTTAASTYGKHLKRLRTVSILGGVAYGQQLMLLAKNPEILVATPGRLLDHLERGRIDLSELKMLVLDEADRMLDMGFIDDIETIVAATPASRQTMLFSATLDGKIGSLTGRLLKDPERIEIQQRLESRTNIAQTVHYVDDRDHKDRLLDHLLRDDALDQAIIFTATKIDADQLAGRLADAGFESAALHGDLPQGARNRTIRALRERRVRVLVATDVAARGIDIPGITHVFNYDLPKFAEDYVHRIGRTGRAGRSGTAVSLVHHAEQGALKRIERFVRSPLPVNVIEGFEPRKAPARTGSTGGRGRPGGGNGGRRFGGKPGGGHAGAGRSYGGGNGGGWSGKPSGSRDGGPRRDGQRSSGPRRSNSAS	failed
AHNLALGAHGEDLAARYLTEAGMEIVDRNWRSRYGEVDLIAAEGDWLVFVEVKTRRGLGYGSPAEAVTFSKQRRIRLLAVEWLRDSGRHWSRVRFDVVAIMIGHGPQPQIEHVRD	failed
MLIGEIMDLNLKNFLEDREEIIRDAKRKDEKSFKDFKKIVEEIKERENKDKIVCDFTEYNPLHKGHKYALEKGKEHGIFISVLPGPLERSGRGIPYFLNRYIRAEMAIRAGADIVVEGPPMGIMGSGQYMRCLIKMFYSLGAEIIPRGYIPEKTMEKVIDCINKGYHIQVKPYKIICIETGEILGEKLNIDNYVIASMSQMIYKLNREGLKFNPKFVFVKRLEGISGTKIREAIFSGKFEDIKNMLPKTTLSILKELYDNGKLNELILKRFEDRILETANEYDLYEYLPSNVAEILEKKRPFNNIEEIKNSLPYGFSRHFRERILSKLEARIPNETLSKYINNYPAKIKILAVKL	not failed
MAGATDQRRQEVLRAIVADYIASQEPVGSKALLERHNLKVSSATIRNDMAVLESEGYIVQQHASSGRIPTEKAYRTFVDSINDIKPLSVAERRAILGFLERGVDLEDVLKRSVQLLSQLTRQAAVIQLPNLNVSRVKHCE	failed
MSLAEGKWWRIMLVDTQLPALAASISALSQEGFDIIQCGNAIEAVPVAVKTHPHLIITEANMPKISGMDLFNSLKKNPQTASIPVIALSGRATAKEEAQLLDMGFIDFIAKPVNAIRLSARIKRVLKLLYEDLSAPPAREGHHHHHH	not failed
MQKFLDWLERVLTPLAKVIGENKYLVAIRDGFLLSTPLLIVGSVFLLIANFPLPQWDTWMSHLLGKDWATMMSVPASASFDVMTILAVVGIAYSLGKQFNVDAMQAGIIALVSFFIVTPYQTLFTPENSSKVYEVTSLPLKWMGSSGLFLGMIVALIATRLFVAIVRKGWTIKMPEGVPPTVVKSFEALIPSFLVVTLMFLVNWLAALTPYGNLQDVIFEFLQTPLLSLGNTLGAMSIAYLFLHFFWFFGINGGSVVGAVFNPVLRALSVENLQAFKDGHEIPNIITGQFQDMFATFGGAGSTLSLIIVMVLFCKSQRIKKLSQLSLIPGVFGINEPIIFGLPIVLNPILLIPFVLVPAINIIIAYFAMDWGLVPLTNGIQLPWTTPPIISGFLVSGWQGSILQALLLVLGMFIYYPFIRVMDDQYLREEWKAQEEESEEIDFDSFDFDDL	failed
MRVLAIRHVEIEDLGMMEDIFREKNWSFDYLDTPKGEKLERPLEEYSLVVLLGGYMGAYEEEKYPFLKYEFQLIEEILKKEIPFLGICLGSQMLAKVLGASVYRGKNGEEIGWYFVEKVSDNKFFREFPDRLRVFQWHGDTFDLPRRATRVFTSEKYENQGFVYGKAVGLQFHIEVGARTMKRWIEAYKDELEKKKIDPRLLLETAEREEKVLKGLLRSLLERMVES	not failed
MGNTTSDRVSGERHGAKAARSEGAGGHAPGKEHKIMVGSTDDPSVFSLPDSKLPGDKEFVSWQQDLEDSVKPTQQARPTVIRWSEGGKEVFISGSFNNWSTKIPLIKSHNDFVAILDLPEGEHQYKFFVDGQWVHDPSEPVVTSQLGTINNLIHVKKSDFEVFDALKLDSMESSETSCRDLSSSPPGPYGQEMYAFRSEERFKSPPILPPHLLQVILNKDTNISCDPALLPEPNHVMLNHLYALSIKDSVMVLSATHRYKKKYVTTLLYKPI	not failed
MNFDLYMNGVVEQARNEIESAGYEQLTTAEDVDKVLKQDGTTLVMINSVCGCAGGIARPAASHALHYDVLPDRLVTVFAGQDKEATQRAREYFEGYAPSSPSFALVKDGKITEMIERHQIEGHDVMNVINQLQTLFNKYC	not failed
MPTVKSRLVLYFPGFDPLDAAAHHLRYQRAAALAGKTWDVNYAVGPRESRPAGEAFTVEASAGNWSTRSDIVVYDHNDVISQLRDASVWRQIWLGFKAGAGIVSEGGAARYLRHAWRFGLFFIFPFLLMLAGGALAAGIALSPWLFSLPLWLLVVSIPAAALFFVKAFLPFAERFHTLHLYADWRFALAVGRNEPIARDWIEERAALVVTALEEPSDEVLVVSHSMGASLALAVIGRVLELKPDALDGRKLSFATLGGAALQCAFLSSAERLRESIGAIARHPDVTWFDIQCLTDPIHLYRCNTVALTGHKDAPQPKIVPIRFKHSLSPERYKKNKRNFLRMHRQYVLGPDRRSGYDFTLLTAGPLPAASFADLESQSPPAL	failed
MSFRKVEKKPTEMGRNMTHEKSDSDSDNEGAPMTVGGYTEFVARSDSDWDEPVYSGKARSNYNLTGTAKGTGPINSFSRKHFPNY	failed
MPNKVKKRHLLDYSIFIPYLILSIVGLIMVYSSTSALQVMKGFSPTSFVINQVAFWVVGLVAMFFIYKMKTSVFQNRSFIMFAIAVITVMVLAVRIPGIGKEINGARGWIEIGGFSMQPAEYLKIMVVWYLSYILARRQKTINGGMDQFKQAAGRPLMLVFVLIALVAIQPDFGNAAILTLITIVMVLASGINYMYTYLVGGLGILGSITAIQLLIMSKGKIFPARYQYIYNRFAVFKNPFLDERNLGHQLANSYYAISNGGWFGKGLGNSVQKKGFLPEAHTDFIFAITLEELGIIGGLAILGLLMFMIARIILVGVRSKKPFNSLMCIGIGTMLLIQVFINVGGITGIIPLTGITFPFLSQGGNSLLIISIAVAFVLNISADETRQKLENEYYLSLEQNQ	failed
METTQKDELSSFLSVLPPVDFCCVYGSTLHPNNQDKSKMVDYILGVSDPIKWHSANLKMNSDHYASWMVHLGGARLITNVADKVGVGVHFNPFVNWNDRKLKYGVVRMHDLVQDILDWKRFYLSGRLQKPVHMLVDNLDIEDVNSVNKRAAISAALLLLPSKFTEEDLYAKICSLSYMGDLRMFFAEDTNKVNKIVKGQFDLFQSMYKPFLEECETKNLLRFSSAEASHTKLVQDSSLSATRSLVSSLPASVRSQMGKSLGEKKFVSETGRVMGEVCISSREEAAKCMEKVMRRRVMVSSGRQAVSGFLAAGAINATMYLSQKMRKAWNSRA	failed
MEGFLMKKTWIALSLLIAFSASSLLPMQAKEATLPKDERYHLVNTSEKGEYELLNTYDSYTEAEKNFQRLSKKYNNLGITYGDSFLQVEQGVVAFPTNSDCSLNTDYILDETNTNGYLNGCYGGDAAFLEYDSYTNQIKFKISGVVAWSDATALTVYPIEKLPNVSSFIVKDGILYHQLKSSATSPSFSSVLPLSKAPSYLKESTTYYSYDTHYFYEAYDQLIKDERLATHQHAINAKKPYYNYYQYLDHRSTTDYTPKQIQSYFKQNLGFQANITNFYDTDNYVHDILTQSLLYGNSEAFFQYQNQFGANALMMLSLSLNESALGKSYIAYNKNNLFGHAAFDSSAEESASRYQSVAASVYSHALHYLSESYLNPEAFQYYGGYFGNKAGGMNVAYASDPYWGEKSASYFMRMDRDMGYQDENNYQLGIAQGQAVKVYASASKKAKLLYTTEEGYDASFILQKKIKNKSGTWYQVQSDIALTKSKESIQDGSYPFATSIGYVKADDIDVITGAEKAANKSYLPITFDAVDGSFYPNTSSITLFVEKGQMPVILDPIKENALFDGWDITLEPATNALTYKATYKHIKNIEVIEKPQTKYNLGDTLNLKHGKIRVTFEDGSSKEVALNNDMVSGFHNDQSGKQRLTITYGGSTTYYDIEMDNQQEERINDVKKQAAHVIKTYMGKVGLNSEALDELIRLRNQLGQFDMQVLPRDQIRVIDRILQENLEPRYSVIIKDDTYDMQVSGLSIALQGESSFLNNIMPKTLRLDVNNDIPKEEKQFVEKVAKANGMNVASYLAIEGTDDFSTLKLQSQLVYSIQKPKKDIDHRIYSVYYISGKDIYQLPTTQSKNRIVFPNDKLGHYAVVWKHADSITHSKDFQEVNTIKQNGKDYIKVYILLPCIIILLTLALLALILYMRKRKIKPFKA	failed
MGHHHHHHSHAESHLQSSLITASQFFEIWLHFDADGSGYLEGKELQNLIQELQQARKKAGLELSPEMKTFVDQYGQRDDGKIGIVELAHVLPTEENFLLLFRCQQLKSCEEFMKTWRKYDTDHSGFIETEELKNFLKDLLEKANKTVDDTKLAEYTDLMLKLFDSNNDGKLELTEMARLLPVQENFLLKFQGIKMCGKEFNKAFELYDQDGNGYIDENELDALLKDLCEKNKQDLDINNITTYKKNIMALSDGGKLYRTDLALILCAGDN	not failed
MPQDPRHPEHQYLDLVKHILENGARRMDRTGTGTLSVFGATMRFSLEDNTFPLLTTRRVFYRGVVEELLFFLRGETDSKVLEKKGVRIWEKNGAKQFLQSVGIDREEGDLGPIYGFQWRHFGARYETSASSYEGKGVDQIASAIAAIRANPASRRIVVSAWNPTDLGSMALPPCHVLFQFNVTDGKLSCAMYQRSGDMGLGVPFNIASYSLLTILVAHLTGLQPGEFVHFLGDAHVYLDHVDSLRQQIQRPPRAFPKLFVSPKGPRTEPEHFQYEDFELVGYDPHPAIKMNMSA	not failed
TEDNIVELDGREWIMTRRQKTRVATNIILLDIPKRIIEKYAPVRKNGHLLPILSNQKMNAYLKEIADLCNIRKPLSFHMARYREFYKHQIINRLYCMSIKGGNEKETSELLYSTLFCHFKEPLFVDCKDSDFFNNMIAIEEL	failed
MLCLHAPSRCEAAPAFPHTYSHYSEQEQLTALLADFGRTQGLATSFSPGVTGTVSGRFEDVAPEKFLQGMKAAFGVSWYRLGPTLHFYHEAETTRIFISPRVMSAESLYRMLRQSSVLSPQLPAELMPGGAMVVVSGPPAYLDQIQAAVTAFEEAQTGNFGMKVFPLKYAWAEDITVNSMDKTVTLPGVASILRAMVSGSPSSATRVTQETATVDKLSGTGLISQGRQQKESGQSNQAQRGGQASQQDSGGAQDGQQVSIMADPRVNAVIVHDAVYRMPYYESVIGDLDRPVELVEIHAAIVDIDTNFKRDLGVTYQATVGKDQRWAGGADVSTGTDKFTPLPVPGVPQGSGLTLSTIYTMGSDYFLARINALEKNGEARMLGRPSVLTVDNVQATLENTSTYYIQVQGYQAVDLFKVEAGTVLRVTPHIINNDDGTDAIKLVVSVQDDQNNQTTPTSTSTTQAIPPIKQTKINTQAIIGAGQSLLIGGYYYEQKATSADGVPILMNIPVLGNLFKTQSKENKRMERLILITPKVVRLDNLPGTPPRVDDPAFHRTATQSDYAERTPTPPPSRRSGCSRAPDNAPEAASGAAGGTGGTGVTANTEGGTTPQAATSPVPAYGVAP	failed

Source: a protein production outcome set (Wang et al. 2014)
